Laboratory results taken from PMC12507909, “The reticulocyte restriction: invasion ligand RBP1a of Plasmodium vivax targets human TfR1, prohibitin-2, and basigin” (Frontiers in Cellular and Infection Microbiology, 2025).

Biological target: T1, transferrin receptor protein 1 (TfR1), recombinant extracellular domain Cys89-Phe760 (human, UniProt P02786 89-760)
T1 construct: Human transferrin receptor protein 1 (TfR1/CD71), extracellular domain, Cys89-Phe760; also called CD71; the 89–760 domain of TfR1; source: bought: SinoBiological
T1 sequence (P02786 89-760): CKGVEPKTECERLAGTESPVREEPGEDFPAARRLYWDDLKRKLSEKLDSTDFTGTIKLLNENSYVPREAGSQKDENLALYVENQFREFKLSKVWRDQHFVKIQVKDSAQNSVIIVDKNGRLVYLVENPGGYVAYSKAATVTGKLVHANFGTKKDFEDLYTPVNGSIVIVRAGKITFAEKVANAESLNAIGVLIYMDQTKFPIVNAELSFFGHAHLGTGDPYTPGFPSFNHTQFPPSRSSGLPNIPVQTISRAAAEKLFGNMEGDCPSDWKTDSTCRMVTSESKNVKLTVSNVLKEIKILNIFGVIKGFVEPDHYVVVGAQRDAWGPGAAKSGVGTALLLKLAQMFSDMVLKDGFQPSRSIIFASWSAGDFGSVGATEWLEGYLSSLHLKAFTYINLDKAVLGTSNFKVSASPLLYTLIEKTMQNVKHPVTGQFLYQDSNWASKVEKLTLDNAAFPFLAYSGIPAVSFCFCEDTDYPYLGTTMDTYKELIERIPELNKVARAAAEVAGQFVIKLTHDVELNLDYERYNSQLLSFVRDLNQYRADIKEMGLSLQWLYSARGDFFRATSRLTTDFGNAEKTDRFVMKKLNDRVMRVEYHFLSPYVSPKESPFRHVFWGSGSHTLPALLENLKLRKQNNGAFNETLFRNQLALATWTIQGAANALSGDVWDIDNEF
Experiment: ELISA; Maxisorp plates coated with 5 μg/mL of each receptor candidate; serial dilutions of PvRBP1a_(158-650)LTID and LTID (48,000 pM to 187.5 pM and 4,000 pM to 1.28 pM) in blocking solution, 16 hours at 4°C; detected with a TurboID-specific antibody; one-site binding saturation model; triplicates
Details: both partners purified

B1: PvRBP1a_(158-650)LTID fusion protein (domain or fragment)
chain: YNSIVDMSEKLKENDKYNLVFDMEIDFVDLQFFNLILELIPKDSQYHTYYEETLKQQVTEYTNSLKTLMDSCISEKDQMIILEYEINYAKRKSIETETLGDKETKLSAVSQAYAKHLESYKGVLKPKLNDIKNNAFSVLKDSYCKDNCGEYVQKYNTMRKNFISSSDQYKMEAYMYIPKSINDYTVLDKILSESNELGIDIQETVNSLKLLGEEISEVSHLYVINSTLIDDAAKKLESINEEDESAEIDLQKFEDNSKALANNYCIFQYIKTLNEPIKKAYESKVIKSNELLSTIIDTLGKSATALQESTFNQEECNKIKTEAEKVKDDAEDIYEKNEQIYYEIPESEDETIADKINDLQYLIDQMNEYKDEIVNNSEFISNRYKNIYENLKETYETELNDIGQLENDTSKVNFYLMQIRKINTEKTKIDESLQTVEKFYKGILDLKEKIYELKIEFEKSVTEINRLQDGESARDLHEEQIKEILDKMAKKVH
notes: Synthetic gene optimised for E. coli, in pET-28a(+) between NcoI and XhoI; About 94 kDa; Details of expression and purification are in the Supplementary Data; also called PvRBP1a (158–650)-TurboID; PvRBP1a_(158-650)LITD
Kd: 1.15 nM
